One block for each molecule: values may come before it.
Experiments:
[1] = Calcium (Ca^2+) binding assay: fluorescence/absorbance titration of purified protein; settings: for Aholo/Aapo: absorbance at 569
Procedure: Calcium (Ca^2+) binding assay. 10 μM protein samples of mApple, EGFP, and mCherry variants were titrated with different concentrations of Ca^2+. Data were fitted with a 1:1 binding equation. Fluorescence intensities were collected using a Spectrofluorimeter (Photon Technology International, Inc.) and the absorbance values of Ca^2+-free and Ca^2+-loaded forms were determined using a Shimadzu UV-1601 spectrophotome.
Ca^2+ binding assay. Fluorescence measurements of mApple variants with increasing Ca^2+ concentrations were done in order to obtain the affinity of the sensor for Ca^2+ in vitro. Samples of 10 μM mApple variants with 5 μM EGTA were prepared in triplicate in 1 mL volumes in 10 mM Tris, pH 7.4. The samples were placed in quartz fluorescence cuvettes, and metal ion was titrated into each sample, in a stepwise manner, using 0.1 M and 1 M metal stock solutions. The fluorescence response of the indicator to increasing Ca^2+ concentrations was monitored using a fluorescence spectrophotometer (Photon Technology International, Canada) with the Felix32 fluorescence analysis software. The absorbance spectra before and after titration were obtained using a Shimadzu UV-1601 spectrophotometer.

[2] = pKa determination of the chromophore; type: physicochemical
Procedure: pKa determination. To measure the chromophore pKa of mApple, EGFP, and mCherry variants, the proteins were prepared in buffers (sodium acetate buffer for pH 3-5, MES buffer for pH 5-6, HEPES buffer for pH 6.5-8, TRIS buffer for pH 8.5-9) covering a pH range from 3 to 10. All samples were Incubated at 4° C. overnight, then the following day, the absorbance and fluorescence spectra were collected using a Shimadzu UV-1601 spectrophotometer and the Spectrofluorimeter.

[3] = Quantum yield, extinction coefficient, and brightness determination; type: physicochemical; parameters: key to Brightness: extinction coefficient × quantum yield
Procedure: Quantum yield, extinction coefficient, and brightness determination. The quantum yield values of all the variants were determined by measuring the emitted fluorescence intensities and absorbance intensities of the chromophore at different protein concentrations. The wildtype was used as a reference to calculate quantum yield. Brightness was defined as a visual perception in which a source appears to emit or reflect a given amount of light, which was obtained by multiplying the extinction coefficient and the quantum yield.

[4] = mCherry based indicators, Ca^2+ induced fluorescence change

- Fmax/Fmin [1, 4]: 0.93 ± 0.02
B1: mCherry A145E/N196D/K198D: mCherry based indicator attempt, 4 negatively charged residues (protein)
chain: EEDNMAIIKEFMRFKVHMEGSVNGHEFEIEGEGEGRPYEGTQTAKLKVTKGGPLPFAWDILSPQFMYGSKAYVKHPADIPDYLKLSFPEGFKWERVMNFEDGGVVTVTQDSSLQDGEFIYKVKLRGTNFPSDGPVMQKKTMGWEESSERMYPEDGALKGEIKQRLKLKDGGHYDAEVKTTYKAKKPVQLPGAYNVDIDLDITSHNEDYTIVEQYERAEGRHSTGGMDELYK

- Fmax/Fmin [1, 4]: 1.05 ± 0.06
B2: mCherry A145E/N196D/K198D/R216E: mCherry based indicator attempt, 5 negatively charged residues (protein)
chain: EEDNMAIIKEFMRFKVHMEGSVNGHEFEIEGEGEGRPYEGTQTAKLKVTKGGPLPFAWDILSPQFMYGSKAYVKHPADIPDYLKLSFPEGFKWERVMNFEDGGVVTVTQDSSLQDGEFIYKVKLRGTNFPSDGPVMQKKTMGWEESSERMYPEDGALKGEIKQRLKLKDGGHYDAEVKTTYKAKKPVQLPGAYNVDIDLDITSHNEDYTIVEQYEEAEGRHSTGGMDELYK

- Fmax/Fmin ([1]; EGFP and mApple variants): 1.02
- Aholo/Aapo [1]: 1.07 (569)
B3: mApple: red fluorescent scaffold protein, SEQ ID NO: 11 (protein)
chain: EENNMAIIKEFMRFKVHMEGSVNGHEFEIEGEGEGRPYEAFQTAKLKVTKGGPLPFAWDILSPQFMYGSKVYIKHPADIPDYFKLSFPEGFRWERVMNFEDGGIIHVNQDSSLQDGVFIYKVKLRGTNFPSDGPVMQKKTMGWEASEERMYPEDGALKSEIKKRLKLKDGGHYAAEVKTTYKAKKPVQLPGAYIVDIKLDIVSHNEDYTIVEQYERAEGRHSTGGMDELYK
- pka ([2]; scaffold, no apo/holo stated): 6.26 ± 0.23
- Brightness ([3]; scaffold, no apo/holo stated): 0.37 ± 0.01
- Extinction coefficient ([3]; scaffold, no apo/holo stated): 75000 M⁻¹ cm⁻¹
- Fluorescence quantum yield ([3]; scaffold, no apo/holo stated): 0.49 ± 0.01

- Fmax/Fmin ([1]; EGFP and mApple variants): 1.17
- Aholo/Aapo [1]: 1.41 (569)
B5: mApple K198D: mApple variant, SEQ ID NO: 23 (protein)
chain: EENNMAIIKEFMRFKVHMEGSVNGHEFEIEGEGEGRPYEAFQTAKLKVTKGGPLPFAWDILSPQFMYGSKVYIKHPADIPDYFKLSFPEGFRWERVMNFEDGGIIHVNQDSSLQDGVFIYKVKLRGTNFPSDGPVMQKKTMGWEASEERMYPEDGALKSEIKKRLKLKDGGHYAAEVKTTYKAKKPVQLPGAYIVDIDLDIVSHNEDYTIVEQYERAEGRHSTGGMDELYK
- pka ([2]; Apo): 6.68 ± 0.09
- pka ([2]; Holo): 6.90 ± 0.12
- Brightness ([3]; Apo): 0.32 ± 0.01
- Extinction coefficient ([3]; Apo): 59000 M⁻¹ cm⁻¹
- Fluorescence quantum yield ([3]; Apo): 0.54 ± 0.01
- Brightness ([3]; Holo): 0.42 ± 0.03
- Extinction coefficient ([3]; Holo): 69000 M⁻¹ cm⁻¹
- Fluorescence quantum yield ([3]; Holo): 0.61 ± 0.03

- Fmax/Fmin ([1]; EGFP and mApple variants): 2.48
- Aholo/Aapo [1]: 2.21 (569)
B8: mApple K198D/R216D: mApple variant, SEQ ID NO: 24 (protein)
chain: EENNMAIIKEFMRFKVHMEGSVNGHEFEIEGEGEGRPYEAFQTAKLKVTKGGPLPFAWDILSPQFMYGSKVYIKHPADIPDYFKLSFPEGFRWERVMNFEDGGIIHVNQDSSLQDGVFIYKVKLRGTNFPSDGPVMQKKTMGWEASEERMYPEDGALKSEIKKRLKLKDGGHYAAEVKTTYKAKKPVQLPGAYIVDIDLDIVSHNEDYTIVEQYEDAEGRHSTGGMDELYK
- pka ([2]; Apo): 7.04 ± 0.11
- pka ([2]; Holo): 6.56 ± 0.11
- Brightness ([3]; Apo): 0.15 ± 0.01
- Extinction coefficient ([3]; Apo): 38000 M⁻¹ cm⁻¹
- Fluorescence quantum yield ([3]; Apo): 0.40 ± 0.01
- Brightness ([3]; Holo): 0.37 ± 0.01
- Extinction coefficient ([3]; Holo): 65000 M⁻¹ cm⁻¹
- Fluorescence quantum yield ([3]; Holo): 0.58 ± 0.01

Further lines, the molecule ahead of its results:

B4: mApple A145E/E147D/K198D/R216E: mApple variant, SEQ ID NO: 27 (protein)
chain: EENNMAIIKEFMRFKVHMEGSVNGHEFEIEGEGEGRPYEAFQTAKLKVTKGGPLPFAWDILSPQFMYGSKVYIKHPADIPDYFKLSFPEGFRWERVMNFEDGGIIHVNQDSSLQDGVFIYKVKLRGTNFPSDGPVMQKKTMGWEESDERMYPEDGALKSEIKKRLKLKDGGHYAAEVKTTYKAKKPVQLPGAYIVDIDLDIVSHNEDYTIVEQYEEAEGRHSTGGMDELYK
- Fmax/Fmin ([1]; EGFP and mApple variants): 4.43
- Aholo/Aapo [1]: 1.66 (569)

B6: mApple A145E/K198E/R216E: mApple variant, SEQ ID NO: 30 (protein)
chain: EENNMAIIKEFMRFKVHMEGSVNGHEFEIEGEGEGRPYEAFQTAKLKVTKGGPLPFAWDILSPQFMYGSKVYIKHPADIPDYFKLSFPEGFRWERVMNFEDGGIIHVNQDSSLQDGVFIYKVKLRGTNFPSDGPVMQKKTMGWEESEERMYPEDGALKSEIKKRLKLKDGGHYAAEVKTTYKAKKPVQLPGAYIVDIELDIVSHNEDYTIVEQYEEAEGRHSTGGMDELYK
- Fmax/Fmin ([1]; EGFP and mApple variants): 2.15
- Aholo/Aapo [1]: 1.04 (569)

B7: mApple A145D/E147D/K198D/R216E: mApple variant, SEQ ID NO: 28 (protein)
chain: EENNMAIIKEFMRFKVHMEGSVNGHEFEIEGEGEGRPYEAFQTAKLKVTKGGPLPFAWDILSPQFMYGSKVYIKHPADIPDYFKLSFPEGFRWERVMNFEDGGIIHVNQDSSLQDGVFIYKVKLRGTNFPSDGPVMQKKTMGWEDSDERMYPEDGALKSEIKKRLKLKDGGHYAAEVKTTYKAKKPVQLPGAYIVDIDLDIVSHNEDYTIVEQYEEAEGRHSTGGMDELYK
- Fmax/Fmin ([1]; EGFP and mApple variants): 3.23
- Aholo/Aapo [1]: 1.84 (569)

B9: mApple A145D/K198D/R216E: mApple variant, SEQ ID NO: 26 (protein)
chain: EENNMAIIKEFMRFKVHMEGSVNGHEFEIEGEGEGRPYEAFQTAKLKVTKGGPLPFAWDILSPQFMYGSKVYIKHPADIPDYFKLSFPEGFRWERVMNFEDGGIIHVNQDSSLQDGVFIYKVKLRGTNFPSDGPVMQKKTMGWEDSEERMYPEDGALKSEIKKRLKLKDGGHYAAEVKTTYKAKKPVQLPGAYIVDIDLDIVSHNEDYTIVEQYEEAEGRHSTGGMDELYK
- Fmax/Fmin ([1]; EGFP and mApple variants): 3.75
- Aholo/Aapo [1]: 1.57 (569)

B10: mApple A145E/K198D/R216E/E218D: mApple variant, SEQ ID NO: 29 (protein)
chain: EENNMAIIKEFMRFKVHMEGSVNGHEFEIEGEGEGRPYEAFQTAKLKVTKGGPLPFAWDILSPQFMYGSKVYIKHPADIPDYFKLSFPEGFRWERVMNFEDGGIIHVNQDSSLQDGVFIYKVKLRGTNFPSDGPVMQKKTMGWEESEERMYPEDGALKSEIKKRLKLKDGGHYAAEVKTTYKAKKPVQLPGAYIVDIDLDIVSHNEDYTIVEQYEEADGRHSTGGMDELYK
- Fmax/Fmin ([1]; EGFP and mApple variants): 2.64
- Aholo/Aapo [1]: 1.59 (569)
